Results from patent US20240026407A1, “MODIFICATION OF SAPONINS” (GLAXOSMITHKLINE BIOLOGICALS SA, priority 2020, published 2024).
Blank lines part the entries; values can stand above or below the molecule they belong to.

What was measured:
[1] = Example 8: screening of glucosidase variants for deglycosylation of saponins in crude bark extract (FIOP); type: biochemical, Quillaja saponaria; conditions: for Cumulative FIOP (cf WT): estimate; for FIOP: fold improvement over parent
Method: Libraries of genetic variants encoding mutations in the wild type Modestobacter marinus glucosidase (SEQ ID No. 262) were prepared using molecular biology techniques, enzymes were prepared linked to an N-terminally located His-tag. Single monoclonal colonies were grown in 400 ul of expression medium and protein expressed. Cell pellets were lysed in 200 ul of the relevant buffer (Table 16)
Lysate was diluted appropriately in the relevant buffer to allow a lysate loading of the indicated % loading (1% loading corresponds to use of 2 ul original lysate in a 200 ul reaction). In some experiments a rhamnosidase was also present during the screening reaction (and also in controls, negating any impact on results).
Crude bark extract (CBE) obtained by aqueous extraction of Quillaja saponaria and containing at least 2.80 mg/ml QS-21 (by HPLC-UV). The pH of CBE was adjusted to pH 6 by dropwise addition of 2M NaOH with stirring. The relevant concentration of the relevant glucosidase was added. The appropriate relative volume of pH 6 CBE (160 ul (for 80%) or 150 ul (for 75%)) was added to each well of the reaction plate. The reaction plate was sealed and incubated at the relevant temperature with shaking overnight for between 18 and 22 hours.
The reaction plate was quenched by adding 200 uL of MeCN (2% AcOH, 1 mg/mL hexanophenone) to each well of the plates. The quenched reaction plate was re-sealed and incubated at 20 deg C. with shaking for 10 min. The reaction plate was then centrifuged (10 min, 4 degC).
200 uL was transferred from each well of the quenched plate to the corresponding wells of a fresh 96 well plate and sealed. The plate was analysed by UV HPLC with the method below:
A negative control (a lysate not expressing test enzymes) and a positive control (expressing the parent comparator—wild type or previous variant as appropriate). Fold improvement over parent (FIOP) for the glucosidase (shorter method) is calculated as follows:
% right peak=100*right peak area/(right peak area+left peak area)
Average % right peak area is calculated for negative controls (per plate) and subtracted from all wells to give the increase in % right peak for each well above average negative control Average increase in % right peak is calculated for positive controls per plate
FIOP=observed increase in % right peak divided by average positive control increase

[2] = Example 10: deglucosylation of saponins in crude bark extract (50%) using WT and engineered glucosidases G1 to G5; type: biochemical, Quillaja saponaria; conditions: 50% CBE, 35 degC; for % Right Peak: starting CBE 26; for % Left Peak: starting CBE 30; for % Middle Peak: starting CBE 44
Method: Lyophilised powders from clarified cell lysate expressing glucosidases (from Example 8 WT glucosidase and engineered glucosidase polypeptides G1 to G5) and rhamnosidases (from Example 9 WT rhamnosidase and engineered rhamnosidase polypeptides R1 to R5) were dissolved in 200 mM sodium acetate aqueous solution at pH 5.8 to prepare the enzyme solutions at 4 fold the final reaction concentration as shown in Tables 19 and 20.
Each glucosidase solution was combined with an equal volume of 200 mM sodium acetate aqueous solution at pH 5.8 and separately with an equal volume of 200 mM sodium acetate aqueous solution at pH 5.8 containing 2 mg/ml rhamnosidase R5. This is a sufficient loading of rhamnosidase to effect complete hydrolysis of the relevant rhamnose moiety within 4 hours.
CBE was adjusted to pH of 6.0 to 6.2 with 2M sodium hydroxide and an equal volume added to the enzyme solution to prepare the reaction mix (i.e. 50% CBE concentration in reaction mix) and the concentration of glucosidase and/or rhamnosidase is shown in Tables 19 and 20. The reaction mix was heated to 35 degC for the time indicated in Tables 19 and 20, after which the reaction was quenched by addition of an equal volume of MeCN containing 2% acetic acid and shaken at room temperature for 10 mins prior to centrifugation (10 min, 4 degC) to remove particulates. Samples were analysed by UV HPLC using method of Experiment 4-4.
The change in composition of the Left, Middle and Right peaks is shown in Tables 19 and 20. The composition changes by the action of the enzymes depending on the presence or absence of the partner enzyme. The extent of reaction is proportional to the enzyme concentration and the reaction time under these conditions. The tables show data for enzyme concentrations and the reaction times providing for equivalent extents of reaction. The improvement resulting from the mutations introduced for each variant is equal to the fold change in enzyme concentration×time (i.e. fold improvement=(enzyme concentration×time) for preceding variant÷(enzyme concentration×time) for later variant). A cumulative fold improvement over the original enzyme variant is calculated by the product of the individual fold improvements.

[3] = screen temp 35, pH 6, lysate loading 0.14%, CBE loading 75%, 100 mM Sodium acetate, Rham Present
[4] = glucosidase 0.1 mg/ml + rhamnosidase R5 0.5 mg/ml, 4 h
[5] = glucosidase 0.1 mg/ml, no rhamnosidase, 4 h
[6] = screen temp 20, pH 6, lysate loading 10%, CBE loading 80%, 100 mM Potassium phosphate, Rham None
[7] = glucosidase 1.56 mg/ml + rhamnosidase R5 0.5 mg/ml, 7 h
[8] = glucosidase 1.56 mg/ml, no rhamnosidase, 7 h

Cumulative Fold improvement in primary enzyme loading × time [2, 4]: 834 | Fold improvement in primary enzyme loading × time [2, 4]: 6.5 | Cumulative Fold improvement in primary enzyme loading × time [2, 5]: 834 | Fold improvement in primary enzyme loading × time [2, 5]: 6.5
B1: Variant G5: engineered glucosidase polypeptide, variant of Modestobacter marinus glucosidase SEQ ID No. 262 (protein)
chain: MNPASSTRTDTMTDTTARTDSRLTDALAALSLEQKVQLLTGRDYWNTWPIEEIGLRRILVSDGPSGVRGEVWDERDPSLNLPSATALASAWDPDIARRYGAAAAVEARRKGVDVVLGPTINLHRSPLGGRHFEAFSEDPVLTAELAAAYVTGVQDNGVGATPKHYVANDFETDRFTVDVRADERTLRELYLLAFEKAVTEARAWLVMSAYNGINGATATENDLLETPLNSEWGFDGVVVSDWTAVRSLESARSSQDLVMPGPLGPWGDALVEAVRTGAIDESVVDRKVLRILTLAQRVGALEGSPAIDPVWVEDGVALAREAAVEGTVLLENRDELPWDATSLRKVAVIGNNAAWAMTQGGGSANVCPEYTVSPLDGVRAALPDAEVSYSLGAVVRDGLVELPLAELTNPVTGGPGLRARFLTADGAELFGEDRRKSVLVYQGGDAPIAAAATYELTARWTPTESQTVRLGFACFGAAQLYVDGELLVESDLQPSGTDLGAAFMNPLTASAEVELVAGKPVDVRLVHDLSAKEGFAAHALILQLGTEPAEVDEDALIAEAAEAAEAADVVLVVVGTNSIVESEGYDRESLSLPGRQDDLVRAVVAANPRTVVLVNAGAPVLLPWRDDVAALLLGWFGGQEFGNAVADVLLGVAEPGGRLPTTWPAAEADVPVLSCTPVDGVVEYTEGIHIGYRAWLRSGATPAYWFGSGQGYTCVELTGVEAPSRARPGEIVTVSVEVANRGERDGKQVVQVYAEKPDSTVDRPVRWLVGSAPVRVPAGQTAQVEVAVPTRYLAHWAGGWQYEPGVYRLRVGTTAVELPLETTLEVSA
modifications: Seq ID No. 262 with mutations F44Y, V263L, R357M, T365N, F442Q, L474C, I475F, F541I, A355W, L367C, Q396R
Cumulative FIOP (cf WT) [1, 3]: 900 | FIOP [1, 3]: 3 | time to complete hydrolysis of the relevant glucose moiety ([2]; 2 mg/ml glucosidase G5 solution (before mixing with rhamnosidase solution and CBE)): ≤ 4 h | cumulative fold improvement over WT glucosidase ([2]; from enzyme concentration x time for equivalent extent of reaction): approximately 800 fold | % change in Left Peak [2, 4]: −34% | % change in Middle Peak [2, 4]: −83% | % change in Right Peak [2, 4]: 280% | % Right Peak [2, 4]: 73% | % Left Peak [2, 4]: 20% | % Middle Peak [2, 4]: 7% | % change in Left Peak [2, 5]: −11% | % change in Middle Peak [2, 5]: −56% | % change in Right Peak [2, 5]: 208% | % Right Peak [2, 5]: 54% | % Left Peak [2, 5]: 27% | % Middle Peak [2, 5]: 19%

Cumulative Fold improvement in primary enzyme loading × time [2, 7]: 32 | Fold improvement in primary enzyme loading × time [2, 7]: 4.0 | Cumulative Fold improvement in primary enzyme loading × time [2, 8]: 32 | Fold improvement in primary enzyme loading × time [2, 8]: 4.0
B2: Variant G2: engineered glucosidase polypeptide, variant of Modestobacter marinus glucosidase SEQ ID No. 262 (protein)
chain: MNPASSTRTDTMTDTTARTDSRLTDALAALSLEQKVQLLTGRDFWNTWPIEEIGLRRILVSDGPSGVRGEVWDERDPSLNLPSATALASAWDPDIARRYGAAAAVEARRKGVDVVLGPTINLHRSPLGGRHFEAFSEDPVLTAELAAAYVTGVQDNGVGATPKHYVANDFETDRFTVDVRADERTLRELYLLAFEKAVTEARAWLVMSAYNGINGATATENDLLETPLNSEWGFDGVVVSDWTAVRSLESARSSQDLVMPGPVGPWGDALVEAVRTGAIDESVVDRKVLRILTLAQRVGALEGSPAIDPVWVEDGVALAREAAVEGTVLLENRDELPWDATSLRKVAVIGNNAAAAMTQGGGSANVLPEYTVSPLDGVRAALPDAEVSYSLGAVVQDGLVELPLAELTNPVTGGPGLRARFLTADGAELFGEDRRKSVLVYFGGDAPIAAAATYELTARWTPTESQTVRLGFFCFGAAQLYVDGELLVESDLQPSGTDLGAAFMNPLTASAEVELVAGKPVDVRLVHDLSAKEGFAAHALFLQLGTEPAEVDEDALIAEAAEAAEAADVVLVVVGTNSIVESEGYDRESLSLPGRQDDLVRAVVAANPRTVVLVNAGAPVLLPWRDDVAALLLGWFGGQEFGNAVADVLLGVAEPGGRLPTTWPAAEADVPVLSCTPVDGVVEYTEGIHIGYRAWLRSGATPAYWFGSGQGYTCVELTGVEAPSRARPGEIVTVSVEVANRGERDGKQVVQVYAEKPDSTVDRPVRWLVGSAPVRVPAGQTAQVEVAVPTRYLAHWAGGWQYEPGVYRLRVGTTAVELPLETTLEVSA
modifications: Seq ID No. 262 with mutations T365N, R357M, A473F, L474C, I475F
Cumulative FIOP (cf WT) [1, 6]: 50 | FIOP [1, 6]: 10 | % change in Left Peak [2, 7]: −26% | % change in Middle Peak [2, 7]: −82% | % change in Right Peak [2, 7]: 269% | % Right Peak [2, 7]: 70% | % Left Peak [2, 7]: 22% | % Middle Peak [2, 7]: 8% | % change in Left Peak [2, 8]: −15% | % change in Middle Peak [2, 8]: −57% | % change in Right Peak [2, 8]: 213% | % Right Peak [2, 8]: 55% | % Left Peak [2, 8]: 26% | % Middle Peak [2, 8]: 19%
